What all share (assay type): cell-based, mouse
Series [1] deals with MEF5/N9 cells. Briefly: Visible phenotypic changes / viability of stably transfected MEF5/N9 clones on 4-OH-tamoxifen treatment. The conditions noted are these: 10^−8 M 4-OH-tamoxifen, 24 h. The protocol: (§1) To generate stably transfected MEF5/N9 cells, 2·10^6 cells were coelectroporated with 32 μg ER(T2) fusion plasmid DNA linearised with ScaI and 8 μg pPgk-hygro-pA plasmid DNA linearised with XhoI and plated into two 96-well plates. The cells were grown in DMEM medium (Invitrogen) supplemented with 2 mM Glutamine and 10% fetal calf serum at 37° C., 5% CO2 in humid atmosphere, and passaged upon trypsinization. Two days after transfection the medium was supplemented with 250 U/ml of hygromycin (Calbiochem) for the selection of stable integrants. Upon the growth of resistant colonies these were individually expanded in the presence of hygromycin.
To examine 4-OH-tamoxifen-dependent cell death, 1·10^5 MEF5/N9 cells expressing ER(T2) fusion proteins were plated into each well of a six-well plate. The following day, for each sample the medium in two of four individual wells were replaced with medium supplemented with 10^−8 M 4-hydroxy-tamoxifen. 24 hours after induction with 4-OH-tamoxifen, cells were photographed through a Leica DMI6000B fluorescence microscope with phase contrast either at 10-fold or 20-fold magnification.
Since the responsiveness of the clones, transfected with the same construct, to 4-OH-tamoxifen differed only slightly from each other, only the results obtained from one clone for each construct are shown in the figure.

The test system of series [2] is MEF5/N9 cells. Kind of series: MTT cytotoxicity assay of stably transfected MEF5/N9 clones. The conditions noted are these: 10^−8 M 4-OH-tamoxifen, 48 h. The protocol: as §1
To quantify 4-OH-tamoxifen-inducible cell death, we applied the colorimetric MTT assay (Mossman, J. Immunol. Methods, 65, 55 (1983)) allowing the quantification of cell survival. Cells (4·10^3) were plated on 96-well plates. The assay was carried out in three replicas for each sample treated with and without 4-OH-tamoxifen. After 12 h, medium was replaced either with fresh medium or with medium supplemented with 10^−8 M 4-OH-tamoxifen. Following 48 h of 4-OH-tamoxifen treatment, sterile filtered MTT reagent in PBS (Sigma) was added at the concentration of 0.5 mg/ml. Incubation occurred for 4 hours at 37° C. With ongoing reaction time, dark violet MTT formazan crystals appeared on the bottom of the wells containing living cells. The crystals were dissolved in 150 μl 0.04 N HCl/isopropanol to give a homogeneous blue solution suitable for absorbance measurement at a wavelength of 570 nm on the Synergy™ HT Multi-Detection Microplate Reader (BioTek).
A general note: Tetrazolium dyes change colour on reduction, which living cells bring about.

Series [3] has as its system MEF5/N9 cells. Kind of series: TUNEL in situ cell death detection assay of MEF5/N9 clones. The note with it: 10^−8 M 4-OH-tamoxifen; for TUNEL result / apoptotic morphology (in words): 3 or 7 hours; for incubation time with 4-OH-tamoxifen at which TUNEL positive cells were detected: fixation at 2, 3, 5 and 7 hours. The text has this: TUNEL, or terminal deoxynucleotidyl transferase-mediated dUTP nick end-labeling, is acknowledged as a method of choice in the rapid detection of DNA fragmentation that results from apoptotic signaling cascades (Gavrieli et al., J. Cell Biol., 119(3), 493-501 (1992)). Cleavage of genomic DNA during apoptosis may yield double-stranded, low molecular weight DNA fragments as well as single strand breaks (“nicks”) in high molecular weight DNA. Those DNA strand breaks can be identified by terminal deoxynucleotidyl transferase (TdT), which catalyzes polymerization of labeled nucleotides to free 3′-OH DNA ends in a template-independent manner. To detect 4-OH-tamoxifen induced cell death in MEF5/N9 cells, we applied the In Situ Cell Death Detection Kit, POD by Roche according to the manufacturer's instructions. Incorporated fluorescein is detected by anti-fluorescein antibody, conjugated with horse-radish peroxidase (POD). After substrate reaction, stained cells can be analyzed under light microscopy.
Two days prior to the TUNEL staining, round glass cover slips ([…]) were sterilized with 70% EtOH, dried under laminar flow and coated with Poly-L-lysine at a concentration of 50 μg/ml over night at 37° C., which allows a better attachment of cells on the cover slips. The following day, the cover slips were rinsed 3 times with PBS and dried for 1 hour under laminar flow. 2.5·10^5 cells were seeded onto cover slips in a 6-well plate. On the test day, medium was replaced either by fresh medium or medium supplemented with 10^−8 M 4-OH-tamoxifen. […] After fixation, cells were rinsed three times in PBS, covered with 100% methanol and incubated for 10 min or over night in a freezer and rinsed in PBS. Endogenous peroxidase activity was blocked by immersing cover slips for 10 min in 3% H2O2 in methanol prior to cell permeabilization. Cells were subsequently rinsed with PBS and incubated in permeabilization solution (0.1% Triton X-100 in freshly prepared 0.1% sodium citrate) for 2 min on ice. To generate a positive control, DNA strand breaks were induced by incubating permeabilized cells with 2 U/ml DNase I in 50 mM Tris-HCl, pH 7.5, 10 mM MgCl2, 1 mg/ml BSA for 10 min at room temperature, prior to labeling procedure. Cover slips were rinsed twice with PBS before incubating each sample with 25 μl TUNEL reaction mixture for 60 min at 37° C. in a humidified atmosphere in the dark. To avoid evaporative loss, cover slips were covered with parafilm. For a negative control 25 μl of Label solution without enzyme solution were added. Following labeling, cover slips were rinsed 3 times with PBS for 10 min each. To convert the fluorescence signal to a chromogenic signal, 25 μl of the POD solution were added on each sample which was covered with parafilm and incubated in a humidified chamber for 30 min at 37° C. Subsequently, cover slips were rinsed 3 times with PBS and incubated in freshly prepared 0.05% DAB in 0.1 M Tris-HCl (pH 7.4) supplemented with 0.02% H2O2 for 10-20 min at room temperature. The conversion procedure was controlled under a light microscope. The reaction was stopped with PBS until brown precipitates were well visible inside the cells. To remove DAB, cover slips were rinsed several times in PBS. Optionally, nuclear staining was performed by incubating cover slips for 15 min in 2.5 μg/ml DAPI diluted in PBS. Cover slips were mounted with a water-soluble, non-fluorescing mounting medium (Aqua-Poly/Mount; Polysciences Inc., Eppelheim, Germany) under SuperFrost slides (VWR International). Prior to the analysis of the samples under a light microscope, mounting medium was dried for 24 hours at room temperature.
To provide direct evidence for 4-OH-tamoxifen-induced apoptosis in MEF5/N9 clones expressing Caspase-8 or -9 fusion proteins, an in situ application of the TUNEL assay was performed. This method detects DNA fragmentation, one of the late events that result from apoptotic signaling cascades. […]

The text below walks through data of patent publication US8530168B2, “Fusion protein comprising a Caspase domain and a nuclear hormone receptor binding domain and methods and uses thereof” (Helmholtz Zentrum Munich Deutsches Forschungszentrum fuer …, priority 2007, dated 2013).

B1: Casp8-ER(T2): fusion of murine Caspase-8 domain to the ER(T2) ligand binding domain, SEQ ID NO: 20 (protein)
chain: MSESRTSDKVYQMKNKPRGYCLIINNHDFSKAREDITQLRKMKDRKGTDCDKEALSKTFKELHFEIVSYDDCTANEIHEILEGYQSADHKNKDCFICCILSHGDKGVVYGTDGKEASIYDLTSYFTGSKCPSLSGKPKIFFIQACQGSNFQKGVPDEAGFEQQNHTLEVDSSSHKNYIPDEADFLLGMATVKNCVSYRDPVNGTWYIQSLCQSLRERCPQGDDILSILTGVNYDVSNKDDRRNKGKQMPQPTFTLRKKLFFPPLEPSAGDMRAANLWPSPLMIKRSKKNSLALSLTADQMVSALLDAEPPILYSEYDPTRPFSEASMMGLLTNLADRELVHMINWAKRVPGFVDLTLHDQVHLLECAWLEILMIGLVWRSMEHPVKLLFAPNLLLDRNQGKCVEGMVEIFDMLLATSSRFRMMNLQGEEFVCLKSIILLNSGVYTFLSSTLKSLEEKDHIHRVLDKITDTLIHLMAKAGLTLQQQHQRLAQLLLILSHIRHMSNKGMEHLYSMKCKNVVPLYDLLLEAADAHRLHAPTSRGGASVEETDQSHLATAGSTSSHSLQKYYITGEAEGFPATA
modifications: fusion protein Casp8-ER(T2)
In the case of B1, the “4-OH-tamoxifen-dependent cell death, phenotype of stable clones” value (“4-OH-tamoxifen-dependent cell death” for short) with MEF5/N9 cells [1] is listed as “died in the presence of 4-OH-tamoxifen within 24 h”; in the series with MEF5/N9 cells [1] (listed as Casp8ER), “substantial cell death”. Moreover, the “cell viability in the presence of 4-OH-tamoxifen (MTT)” value (from here on “cell viability in the presence”) with MEF5/N9 cells [2] is reported as 31%. In the series on MEF5/N9 cells [3], the “TUNEL result / apoptotic morphology (in words)” value is recorded as “typical apoptotic morphology”. Also, in the series with MEF5/N9 cells [3], the “incubation time with 4-OH-tamoxifen at which TUNEL positive cells were detected” value (shortened to “incubation time with 4-OH-tamoxifen”) came out at 7 h.

B2: Casp9full-ER(T2): full length murine Caspase-9 fused to ER(T2) ligand binding domain, SEQ ID NO: 29 (protein)
chain: MDEADRQLLRRCRVRLVSELQVAELWDALLSRELFTRDMIEDIQQAGSGSRRDQARQLVTDLETRGRQALPLFISCLEDTGQGTLASLLQSGRQAAKQDPEAVKPLDHLVPVVLGPMGLTAKEQRVVKLDPSQPAVGNLTPVVLGPEELWPARLKPEVLRPETPRPVDIGSGGAHDVCVPGKIRGHADMAYTLDSDPCGHCLIINNVNFCPSSGLGTRTGSNLDRDKLEHRFRWLRFMVEVKNDLTAKKMVTALMEMAHRNHRALDCFVVVILSHGCQASHLQFPGAVYGTDGCSVSIEKIVNIFNGSGCPSLGGKPKLFFIQACGGEQKDHGFEVACTSSQGRTLDSDSEPDAVPYQEGPRPLDQLDAVSSLPTPSDILVSYSTFPGFVSWRDKKSGSWYIETLDGILEQWARSEDLQSLLLRVANAVSAKGTYKQIPGCFNFLRKKLFFKTSVEPSAGDMRAANLWPSPLMIKRSKKNSLALSLTADQMVSALLDAEPPILYSEYDPTRPFSEASMMGLLTNLADRELVHMINWAKRVPGFVDLTLHDQVHLLECAWLEILMIGLVWRSMEHPVKLLFAPNLLLDRNQGKCVEGMVEIFDMLLATSSRFRMMNLQGEEFVCLKSIILLNSGVYTFLSSTLKSLEEKDHIHRVLDKITDTLIHLMAKAGLTLQQQHQRLAQLLLILSHIRHMSNKGMEHLYSMKCKNVVPLYDLLLEAADAHRLHAPTSRGGASVEETDQSHLATAGSTSSHSLQKYYITGEAEGFPATA
modifications: fusion protein Casp9full-ER(T2)
With B2, the “4-OH-tamoxifen-dependent cell death” value with MEF5/N9 cells [1] is listed as “died in the presence of 4-OH-tamoxifen within 24 h”. For the same molecule, the “4-OH-tamoxifen-dependent cell death” value in the series on MEF5/N9 cells [1] (listed as Casp9fullER) is recorded as “substantial cell death”. The “cell viability in the presence” value with MEF5/N9 cells [2] came to 6%. Moreover, in the series on MEF5/N9 cells [3], the “TUNEL result / apoptotic morphology (in words)” value was “typical apoptotic morphology” and the “incubation time with 4-OH-tamoxifen” value was determined as 3 h.

B3: myrCasp8-ER(T2): murine Caspase-8 domain with N-terminal myristoylation motif fused to ER(T2) ligand binding domain, SEQ ID NO: 23 (protein)
chain: MGSSKSKPKDPSQRSESRTSDKVYQMKNKPRGYCLIINNHDFSKAREDITQLRKMKDRKGTDCDKEALSKTFKELHFEIVSYDDCTANEIHEILEGYQSADHKNKDCFICCILSHGDKGVVYGTDGKEASIYDLTSYFTGSKCPSLSGKPKIFFIQACQGSNFQKGVPDEAGFEQQNHTLEVDSSSHKNYIPDEADFLLGMATVKNCVSYRDPVNGTWYIQSLCQSLRERCPQGDDILSILTGVNYDVSNKDDRRNKGKQMPQPTFTLRKKLFFPPLEPSAGDMRAANLWPSPLMIKRSKKNSLALSLTADQMVSALLDAEPPILYSEYDPTRPFSEASMMGLLTNLADRELVHMINWAKRVPGFVDLTLHDQVHLLECAWLEILMIGLVWRSMEHPVKLLFAPNLLLDRNQGKCVEGMVEIFDMLLATSSRFRMMNLQGEEFVCLKSIILLNSGVYTFLSSTLKSLEEKDHIHRVLDKITDTLIHLMAKAGLTLQQQHQRLAQLLLILSHIRHMSNKGMEHLYSMKCKNVVPLYDLLLEAADAHRLHAPTSRGGASVEETDQSHLATAGSTSSHSLQKYYITGEAEGFPATA
modifications: N-terminal myristoylation motif; fusion protein myrCasp8-ER(T2)
As to B3, the “4-OH-tamoxifen-dependent cell death” value in the series on MEF5/N9 cells [1] is recorded as “died in the presence of 4-OH-tamoxifen within 24 h”. Moreover, the “4-OH-tamoxifen-dependent cell death” value in the series on MEF5/N9 cells [1] (listed as myrCasp8ER) is “substantial cell death”. In addition, in the series with MEF5/N9 cells [2], the “cell viability in the presence” value came to 9%. In the series on MEF5/N9 cells [3], the “TUNEL result / apoptotic morphology (in words)” value was “typical apoptotic morphology” and the “incubation time with 4-OH-tamoxifen” value worked out at 3 h.
